Where no end group is shown, it is not given here.
Tests used:
[1] = target: HLA-DR molecule, DRB1*1101 (human); assay: ELISA
[2] = target: HLA-DR molecule, DRB1*0401 (human); assay: ELISA

Row | IC50 [1] [nM] | IC50 [2] [nM] | Binder
1 | < 2000 | – | VPPVVRWLNEQRYYGGGY (also: amino and carboxyl ends blocked) [C3d_(248–265)]
2 | < 2000 | < 2000 | GKQLYNVEATSYALLALLQLKDFD (also: amino and carboxyl ends blocked) [C3d_(223–246)]
3 | < 2000 | – | QATFMVFQALAQYQKDAP (also: amino and carboxyl ends blocked) [C3d_(269–286)]
